Assay results reported in article PMC8653885, “Higher expression of the strawberry xyloglucan endotransglucosylase/hydrolase genes FvXTH9 and FvXTH6 accelerates fruit ripening” (The Plant Journal, 2019).

Tested on: T1, OC[C@@H](O)[C@@H](O[C@@H]1O[C@H](CO[C@H]2OC[C@@H](O)[C@H](O)[C@H]2O)[C@@H](O[C@@H]2O[C@H](CO[C@H]3OC[C@@H](O)[C@H](O)[C@H]3O)[C@@H](O[C@@H]3O[C@H](CO[C@H]4OC[C@@H](O)[C@H](O)[C@H]4O)[C@@H](O)[C@H](O)[C@H]3O)[C@H](O)[C@H]2O)[C@H](O)[C@H]1O)[C@H](O)[C@@H](O)CO
T1 construct: called FvXTH6 by Opazo et al. 2017
Assay: radiochemical XET assay, 3H incorporation into xyloglucan, Michaelis-Menten
Assay type: biochemical, Fragaria vesca
Details: acceptor substrate, donor 1% (w/v) tamarind xyloglucan, [3H]XXXGol diluted with unlabelled XXXGol (0-357 μM), labelled compound, general XET assay: 100 mM Na succinate pH 5.5, 25 °C

Substance: FvXTH9 (Fragaria vesca subsp. vesca)
- Km: 43 µM
